For 167 variants, self-cleavage results are on record in the RNAGym collection of RNA variant scans (doi:10.7554/elife.80360).

To fix the notation:
B1: Hairpin Ribozyme (parent)
chain: GUCCUCUUUCACGUGCGCGUGAAAGAGAGAAGUGAACCAGAGAAACACACGUUGUGGUAUAUUACCUGGUA

This data set covers variants of B1. Description: self-cleavage, relative activity (ratio to wild type); higher = more cleavage; co-transcriptional.
For the variant A41U A59C, the self-cleavage is 0.158.

Turning to A41U A59G, the self-cleavage is 0.255.

For the variant C38A A59C, the self-cleavage was determined as 0.103.

Take G29U A35C: the self-cleavage was 0.11.

As to G1U C37U, the self-cleavage is 0.0964.

With G27U C38G, the self-cleavage amounted to 0.17.

For U20G U53A, the self-cleavage amounted to 0.927.

On to A11U C50U, for which the self-cleavage came out at 0.36.

Turning to U62G A64C, the self-cleavage was found to be 0.2.

For the variant U55C C66A, the self-cleavage is 0.13.

Take A44U A61U: the self-cleavage came out at 0.124.

As to A49U U67A, the self-cleavage amounted to 0.0529.

As to C4G A35U, the self-cleavage came out at 0.157.

On to G27A U55A, for which the self-cleavage turned out to be 0.169.

Regarding C10U A23G, the self-cleavage was 0.551.

For the variant U2G G25A, the self-cleavage worked out at 0.224.

As for A44C U55G, the self-cleavage worked out at 0.102.

Consider A30C G42A, for which the self-cleavage is 0.0752.

As to C16A A44U, the self-cleavage came out at 0.133.

With C46G G51C, the self-cleavage was found to be 0.0873.

Take C3G C6A: the self-cleavage was found to be 0.267.

With A11C G34A, the self-cleavage is 1.01.

Take G32U U53C: the self-cleavage is 0.253.

In the case of C46G A71C, the self-cleavage amounted to 0.211.

Turning to C16A A49C, the self-cleavage worked out at 0.0771.

As to G27U U67C, the self-cleavage amounted to 0.0907.

For the variant U8G C38U, the self-cleavage is 0.548.

Turning to U8G C38A, the self-cleavage came out at 0.165.

For the variant C16U C38A, the self-cleavage was 0.172.

Consider G40A U55A, for which the self-cleavage was determined as 0.157.

A11U G13A: the self-cleavage came to 0.672.

Consider C6U U58A, for which the self-cleavage turned out to be 0.66.

Regarding A35G G40A, the self-cleavage came out at 0.24.

As for G56A A61U, the self-cleavage amounted to 0.166.

Take A30C A39U: the self-cleavage is 0.0707.

With C10U A71C, the self-cleavage worked out at 1.23.

In the case of C4U A43C, the self-cleavage worked out at 0.128.

On to G21U A26C, for which the self-cleavage worked out at 0.123.

A31U C65G: the self-cleavage was 0.166.

For G19C A43U, the self-cleavage amounted to 0.121.

Take C12G G57A: the self-cleavage amounted to 0.152.

Regarding A49C A64C, the self-cleavage stood at 0.168.

On to A43G U53C, for which the self-cleavage is 0.107.

As to A44U U55G, the self-cleavage was found to be 0.0792.

Take C10G A64G: the self-cleavage worked out at 0.397.

G34C U67A: the self-cleavage turned out to be 0.451.

As to G21C U63G, the self-cleavage turned out to be 0.191.

Consider U5C G17C, for which the self-cleavage worked out at 0.339.

Take A43U C46A: the self-cleavage came to 0.0823.

In the case of C6U U53C, the self-cleavage amounted to 0.704.

For the variant U9A A31C, the self-cleavage was found to be 0.158.

With A23G C66U, the self-cleavage came to 0.456.

As to C38U G54U, the self-cleavage was found to be 0.336.

Turning to G1A G56A, the self-cleavage was 0.181.

With G17A U67G, the self-cleavage was 0.243.

For G17A U67A, the self-cleavage turned out to be 0.255.

With G1U C18U, the self-cleavage came out at 0.121.

Consider U9C U55A, for which the self-cleavage is 0.299.

A47U G57A: the self-cleavage was determined as 0.417.

On to A11C U63C, for which the self-cleavage turned out to be 0.141.

As for G34U G40C, the self-cleavage came to 0.232.

In the case of G34U G40A, the self-cleavage worked out at 0.751.

G42U C50U: the self-cleavage was found to be 0.197.

For A59G U67C, the self-cleavage came to 0.128.

In the case of A59C G68A, the self-cleavage came out at 0.124.

Turning to A30C A64C, the self-cleavage is 0.127.

As to C10A G42U, the self-cleavage was found to be 0.268.

On to U5G G69U, for which the self-cleavage was 0.247.

On to C16U U20A, for which the self-cleavage was 0.817.

For A26U C38A, the self-cleavage was found to be 0.188.

As to G17C U60C, the self-cleavage came out at 1.08.

As for A22G C38G, the self-cleavage was determined as 0.185.

On to U9A A36G, for which the self-cleavage was 0.797.

Regarding C48U A59U, the self-cleavage was determined as 0.0991.

For the variant U58G A61U, the self-cleavage was found to be 0.0693.

Take G13C C46A: the self-cleavage amounted to 0.137.

Consider A35G A64G, for which the self-cleavage is 0.277.

Turning to C16U U63G, the self-cleavage worked out at 0.195.

For U20A G57C, the self-cleavage was determined as 0.215.

With C10G C12G, the self-cleavage turned out to be 0.477.

On to C18A U70G, for which the self-cleavage is 0.862.

For the variant U20C A22G, the self-cleavage stood at 0.877.

As to C4A A36U, the self-cleavage turned out to be 0.197.

C6G A43G: the self-cleavage came to 0.0944.

Consider U20C U67G, for which the self-cleavage is 0.336.

For the variant C16G A35G, the self-cleavage was 0.797.

Consider A35G A44C, for which the self-cleavage was 0.211.

For the variant A61U U70A, the self-cleavage was determined as 0.175.

Regarding A24C U52A, the self-cleavage is 1.05.

In the case of A11G A49G, the self-cleavage was 0.577.

With C50G U58G, the self-cleavage was 0.147.

A28G G56U: the self-cleavage worked out at 0.165.

Regarding C12A A47U, the self-cleavage is 0.132.

As for U52C U60A, the self-cleavage was determined as 1.14.

As for G19U A44U, the self-cleavage stood at 0.124.

For the variant G34A A59C, the self-cleavage is 0.148.

As for A39U A45C, the self-cleavage was 0.123.

A22G G40A: the self-cleavage turned out to be 0.272.

In the case of G29C U63A, the self-cleavage was 0.217.

In the case of U2G G32U, the self-cleavage turned out to be 0.119.

With G1A A36G, the self-cleavage was 0.088.

As to C65U G68C, the self-cleavage was 0.108.

Take U14A U63C: the self-cleavage is 0.212.

On to G40C G69A, for which the self-cleavage is 0.111.

As to U20C C66U, the self-cleavage came out at 0.486.

On to G19A A59C, for which the self-cleavage was found to be 0.199.

Regarding A23C A28C, the self-cleavage amounted to 0.349.

Consider U14A A49U, for which the self-cleavage worked out at 0.13.

For C4G U53C, the self-cleavage was 0.264.

For A22U A26G, the self-cleavage was determined as 0.743.

As for C37G G69A, the self-cleavage was determined as 0.346.

U2C A22U: the self-cleavage turned out to be 0.296.

On to A35U G69U, for which the self-cleavage was 0.111.

Regarding C12A G34C, the self-cleavage came to 1.17.

As for A24U A36U, the self-cleavage came out at 0.41.

On to A23U G29A, for which the self-cleavage was determined as 0.145.

As for G29U U58A, the self-cleavage turned out to be 0.154.

Turning to A44G G51C, the self-cleavage is 0.238.

With U9A G51A, the self-cleavage was determined as 0.688.

Turning to G1C G29A, the self-cleavage turned out to be 0.174.

As for C10A U53C, the self-cleavage stood at 0.888.

Take U7A U70C: the self-cleavage was determined as 1.04.

G27C G68C: the self-cleavage came out at 0.0698.

With A47C U58G, the self-cleavage stood at 0.172.

U14A C65G: the self-cleavage was found to be 0.323.

Regarding A28U U58C, the self-cleavage is 0.58.

In the case of U55G A64U, the self-cleavage is 0.158.

With A22G U33A, the self-cleavage amounted to 0.115.

Regarding U2A A59U, the self-cleavage was 0.141.

Take C6A A41U: the self-cleavage was 0.919.

For U55C U58G, the self-cleavage was determined as 0.175.

With U9C G17C, the self-cleavage amounted to 0.647.

Consider G15C C46A, for which the self-cleavage was 0.136.

For the variant G54U A59C, the self-cleavage was determined as 0.0613.

Consider A36C C46G, for which the self-cleavage stood at 0.134.

In the case of U9C A45U, the self-cleavage was 0.0912.

A26U A61U: the self-cleavage was 0.15.

As to C4U U52A, the self-cleavage is 0.295.

Take U20G A35C: the self-cleavage is 0.976.

For the variant G15A G68C, the self-cleavage stood at 0.219.

In the case of G69U, the self-cleavage was determined as 0.243.

In the case of G25C C50G, the self-cleavage turned out to be 0.178.

C10G G54U: the self-cleavage was 0.471.

For A41C A43C, the self-cleavage is 0.0734.

With U63C A71U, the self-cleavage came to 0.191.

Regarding C38G U60G, the self-cleavage was determined as 0.146.

On to G27A C46U, for which the self-cleavage turned out to be 0.127.

Take A44C G56A: the self-cleavage was 0.152.

With A41C U58A, the self-cleavage worked out at 1.07.

For C12A G27A, the self-cleavage was determined as 0.378.

Turning to U14G A41U, the self-cleavage worked out at 1.05.

Regarding U14C G40A, the self-cleavage amounted to 0.326.

Turning to G40U C65U, the self-cleavage was 0.177.

As to U63A G68U, the self-cleavage was 0.225.

As to G27A G42U, the self-cleavage is 0.147.

Regarding G25U G54U, the self-cleavage was found to be 0.399.

Turning to A26C G69A, the self-cleavage was 0.327.

In the case of G40U U70G, the self-cleavage amounted to 0.0618.

Consider C16G G69A, for which the self-cleavage is 0.225.

As to A45U C50A, the self-cleavage was 0.145.

As for U8C U63A, the self-cleavage came to 0.0901.

With C4U U33C, the self-cleavage came out at 0.237.

Turning to C3U G17U, the self-cleavage stood at 0.473.

Turning to A22U C50U, the self-cleavage was 0.342.

In the case of A31C A44G, the self-cleavage was determined as 0.174.

Consider G27C A71U, for which the self-cleavage worked out at 0.178.

As to G25U A47G, the self-cleavage was determined as 0.0793.
